Measurements from patent US20070071773.

Legend:
[1] = biological target: recombinant human IL-8/CXCL8 (UniProt P10145)
[2] = biological target: T1, recombinant murine MIP-2 (UniProt P10889)
T1 sequence: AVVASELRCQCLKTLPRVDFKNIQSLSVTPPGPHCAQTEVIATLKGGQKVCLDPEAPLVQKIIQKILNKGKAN

Sequence of recombinant human IL-8/CXCL8 (P10145 28-99): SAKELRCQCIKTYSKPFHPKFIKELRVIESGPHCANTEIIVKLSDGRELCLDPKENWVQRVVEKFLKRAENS

## trypsin-like GAS protease (chemokine protease released into the culture supernatant of GAS strain JS95)
[1]
  IL-8 degradation (Western blot): JS95 supernatant effectively degraded IL-8
[2]
  MIP-2 degradation (dot blot): The supernatant of JS95 degraded more than 80% of the recombinant MIP-2 protein
